Source: patent publication US20100061991A1

Target: human DCIR (dendritic cell immunoreceptor), full length, isotype 1 (human) (UniProt Q9UMR7)
Experiment: cell-based or functional assay

Sequence of UniProt Q9UMR7 (Q9UMR7 whole entry): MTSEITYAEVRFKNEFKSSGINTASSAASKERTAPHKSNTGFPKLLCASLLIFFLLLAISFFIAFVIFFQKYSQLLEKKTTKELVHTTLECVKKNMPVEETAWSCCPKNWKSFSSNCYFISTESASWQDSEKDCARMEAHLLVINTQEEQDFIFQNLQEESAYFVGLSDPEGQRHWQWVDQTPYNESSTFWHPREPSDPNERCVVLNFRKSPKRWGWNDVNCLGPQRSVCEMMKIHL

For “HIV-1 NL4-3balenv virions (R5-tropic; NL4-3 with the env gene of HIV-1 Bal)”, the reduction in virus transfer from IM-MDDC to CD4+ T cells after DCIR-specific siRNA, in absence of EFV was 30% and the reduction in virus transfer from IM-MDDC to CD4+ T cells after DCIR-specific siRNA, in cells treated with EFV was 40%.
